Source: IntAct's records for PubMed 23286197

B1: MIF4G domain-containing protein (Homo sapiens), A9UHW6 (parent)
chain: MGEPSREEYKIQSFDAETQQLLKTALKDPGAVDLEKVANVIVDHSLQDCVFSKEAGRMCYAIIQAESKQAGQSVFRRGLLNRLQQEYQAREQLRARSLQGWVCYVTFICNIFDYLRVNNMPMMALVNPVYDCLFRLAQPDSLSKEEEVDCLVLQLHRVGEQLEKMNGQRMDELFVLIRDGFLLPTGLSSLAQLLLLEIIEFRAAGWKTTPAAHKYYYSEVSD

Variants of: B1
Conditions: with slbp_human SLBP

Question: How did the “effect of a mutation on the interaction” value turn out when E7A was run?
Answer: with no effect

Question: With K10A as the variant, how does the “effect of a mutation on the interaction” value read?
Answer: with no effect

Question: H44A was tested. Which “effect of a mutation on the interaction” value did it give?
Answer: with no effect

Question: For R57A, which “effect of a mutation on the interaction” value is on record?
Answer: with no effect

Question: How did the “effect of a mutation on the interaction” value turn out when Y60A was run?
Answer: with no effect

Question: Which “effect of a mutation on the interaction” value does the source give for Q64A here?
Answer: with no effect

Question: How did the “effect of a mutation on the interaction” value turn out when F75A was run?
Answer: with no effect

Question: Which “effect of a mutation on the interaction” value does the source give for R76A here?
Answer: with no effect

Question: How did the “effect of a mutation on the interaction” value turn out when R82A was run?
Answer: with no effect

Question: With R157A as the variant, how does the “effect of a mutation on the interaction” value read?
Answer: with no effect

Question: How did the “effect of a mutation on the interaction” value turn out when E200A was run?
Answer: increasing interaction

Question: How did the “effect of a mutation on the interaction” value turn out when R202A was run?
Answer: disrupting interaction
